Common to all, as to test: G' assay (10 uM PL peptide), results of TABLE 7 and TABLE 12
What all share (format): binding

Assay [1] deals with T1, PDZ protein (GST-PDZ fusion) (Homo sapiens, UniProt Q07157).
T1 construct: made in house; host or cells: E. coli (DH5alpha, BL21 or JM109)
The gist of the method: (§1)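 Binding classes derive from A450 nm of bound biotin-tagged PL peptide. A score of 5 needs A450 above 4 in more than two repeats.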

Assay [2] has as its target T2, PDZ protein (GST-PDZ fusion) (Homo sapiens, UniProt Q9NSN8).
T2 construct: made in house; host or cells: E. coli (DH5alpha, BL21 or JM109)
T2 sequence (Q9NSN8 1-517): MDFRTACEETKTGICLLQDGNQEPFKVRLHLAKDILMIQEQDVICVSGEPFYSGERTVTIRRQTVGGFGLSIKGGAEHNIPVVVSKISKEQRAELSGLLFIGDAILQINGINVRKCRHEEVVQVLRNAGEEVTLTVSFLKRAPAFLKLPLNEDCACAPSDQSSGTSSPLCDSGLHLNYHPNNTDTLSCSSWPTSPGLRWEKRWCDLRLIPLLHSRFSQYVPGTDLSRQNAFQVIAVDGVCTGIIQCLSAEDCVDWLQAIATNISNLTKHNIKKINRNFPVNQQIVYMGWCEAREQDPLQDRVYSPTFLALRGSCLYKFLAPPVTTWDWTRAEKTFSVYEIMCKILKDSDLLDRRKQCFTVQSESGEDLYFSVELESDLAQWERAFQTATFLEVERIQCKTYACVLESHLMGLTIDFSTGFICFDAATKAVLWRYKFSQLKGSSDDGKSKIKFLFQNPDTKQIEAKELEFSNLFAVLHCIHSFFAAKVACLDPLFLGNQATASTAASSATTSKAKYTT
The following applies: PDZ Syntrophin gamma-1, PDZ Domain 1. The method in brief: as §1

Assay [3] concerns the target T3, PDZ protein (GST-PDZ fusion) (Homo sapiens, UniProt P29475).
T3 construct: made in house; host or cells: E. coli (DH5alpha, BL21 or JM109)
Conditions: PDZ NOS1, PDZ Domain 1. The gist of the method:
as §1

The target in assay [4] is T4, PDZ protein (GST-PDZ fusion) (Homo sapiens, UniProt Q9Y2H9).
T4 construct: made in house; host or cells: E. coli (DH5alpha, BL21 or JM109)
Conditions: PDZ KIAA0973, PDZ Domain 1. The method in brief: as §1

Assay [5] has as its target T5, PDZ protein (GST-PDZ fusion) (Homo sapiens, UniProt Q96JY6).
T5 construct: made in house; host or cells: E. coli (DH5alpha, BL21 or JM109)
T5 sequence (Q96JY6 1-352): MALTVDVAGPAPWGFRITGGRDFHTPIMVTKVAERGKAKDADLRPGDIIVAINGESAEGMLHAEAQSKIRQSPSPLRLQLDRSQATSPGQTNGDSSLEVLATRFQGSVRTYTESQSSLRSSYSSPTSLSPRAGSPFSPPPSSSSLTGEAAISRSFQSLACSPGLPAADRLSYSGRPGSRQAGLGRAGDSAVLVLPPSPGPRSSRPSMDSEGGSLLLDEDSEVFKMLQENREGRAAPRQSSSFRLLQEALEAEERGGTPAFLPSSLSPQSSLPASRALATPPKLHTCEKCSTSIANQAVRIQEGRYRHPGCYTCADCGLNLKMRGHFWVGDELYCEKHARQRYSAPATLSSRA
Conditions: PDZ LIM-Mystique, PDZ Domain 1. The gist of the method: as §1

Ends that are not written are not given here. Peptide text beside a SMILES is read from it. * marks the point of attachment. Biotin = O=C1N[C@H]2[C@H](CS[C@H]2CCCCC(=O)*)N1

T1 sequence (Q07157 whole entry, the tested form may be a part): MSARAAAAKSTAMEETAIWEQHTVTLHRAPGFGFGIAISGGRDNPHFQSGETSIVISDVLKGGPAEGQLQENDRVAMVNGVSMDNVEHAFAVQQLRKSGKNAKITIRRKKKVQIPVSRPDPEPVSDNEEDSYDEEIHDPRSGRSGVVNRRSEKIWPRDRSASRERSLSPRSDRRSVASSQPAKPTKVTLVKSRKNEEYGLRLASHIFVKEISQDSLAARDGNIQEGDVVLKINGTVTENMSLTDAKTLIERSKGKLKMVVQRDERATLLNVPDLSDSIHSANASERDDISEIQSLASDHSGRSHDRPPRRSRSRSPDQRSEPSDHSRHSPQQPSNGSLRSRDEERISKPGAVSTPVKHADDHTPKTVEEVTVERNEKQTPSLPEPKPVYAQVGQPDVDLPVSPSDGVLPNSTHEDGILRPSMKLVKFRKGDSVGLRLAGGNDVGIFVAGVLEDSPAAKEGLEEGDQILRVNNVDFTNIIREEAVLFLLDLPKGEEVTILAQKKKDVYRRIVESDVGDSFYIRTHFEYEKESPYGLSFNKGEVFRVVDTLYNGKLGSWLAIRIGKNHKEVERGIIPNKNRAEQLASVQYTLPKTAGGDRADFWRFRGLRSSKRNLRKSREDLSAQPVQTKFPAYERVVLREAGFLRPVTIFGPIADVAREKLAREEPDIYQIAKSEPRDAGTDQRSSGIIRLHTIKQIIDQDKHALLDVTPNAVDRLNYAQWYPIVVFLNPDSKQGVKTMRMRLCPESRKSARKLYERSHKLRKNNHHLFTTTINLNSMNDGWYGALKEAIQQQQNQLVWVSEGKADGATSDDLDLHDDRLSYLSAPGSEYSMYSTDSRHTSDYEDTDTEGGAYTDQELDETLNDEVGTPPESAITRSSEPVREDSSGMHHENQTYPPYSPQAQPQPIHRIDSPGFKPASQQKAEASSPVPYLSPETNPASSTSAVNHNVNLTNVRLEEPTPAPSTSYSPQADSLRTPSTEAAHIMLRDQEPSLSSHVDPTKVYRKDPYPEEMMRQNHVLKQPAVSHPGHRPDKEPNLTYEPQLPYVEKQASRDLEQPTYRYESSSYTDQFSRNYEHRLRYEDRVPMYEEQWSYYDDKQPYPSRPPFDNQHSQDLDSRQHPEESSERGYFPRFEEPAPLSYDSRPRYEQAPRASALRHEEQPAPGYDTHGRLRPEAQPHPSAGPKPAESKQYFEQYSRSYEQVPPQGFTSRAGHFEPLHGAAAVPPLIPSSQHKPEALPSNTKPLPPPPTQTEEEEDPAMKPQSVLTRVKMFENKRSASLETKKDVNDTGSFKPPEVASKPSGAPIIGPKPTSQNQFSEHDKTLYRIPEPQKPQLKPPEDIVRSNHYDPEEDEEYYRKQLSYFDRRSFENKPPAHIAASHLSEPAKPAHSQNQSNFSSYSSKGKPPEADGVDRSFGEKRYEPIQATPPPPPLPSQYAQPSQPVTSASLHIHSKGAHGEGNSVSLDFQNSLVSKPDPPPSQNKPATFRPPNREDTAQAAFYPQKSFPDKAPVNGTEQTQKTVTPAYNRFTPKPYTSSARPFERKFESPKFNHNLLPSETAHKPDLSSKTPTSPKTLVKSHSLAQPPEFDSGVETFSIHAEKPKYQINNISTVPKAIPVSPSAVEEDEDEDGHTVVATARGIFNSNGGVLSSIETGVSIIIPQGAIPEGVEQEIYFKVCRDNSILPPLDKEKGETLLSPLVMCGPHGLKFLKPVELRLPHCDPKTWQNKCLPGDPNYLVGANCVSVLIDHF
T4 sequence (Q9Y2H9 whole entry, the tested form may be a part): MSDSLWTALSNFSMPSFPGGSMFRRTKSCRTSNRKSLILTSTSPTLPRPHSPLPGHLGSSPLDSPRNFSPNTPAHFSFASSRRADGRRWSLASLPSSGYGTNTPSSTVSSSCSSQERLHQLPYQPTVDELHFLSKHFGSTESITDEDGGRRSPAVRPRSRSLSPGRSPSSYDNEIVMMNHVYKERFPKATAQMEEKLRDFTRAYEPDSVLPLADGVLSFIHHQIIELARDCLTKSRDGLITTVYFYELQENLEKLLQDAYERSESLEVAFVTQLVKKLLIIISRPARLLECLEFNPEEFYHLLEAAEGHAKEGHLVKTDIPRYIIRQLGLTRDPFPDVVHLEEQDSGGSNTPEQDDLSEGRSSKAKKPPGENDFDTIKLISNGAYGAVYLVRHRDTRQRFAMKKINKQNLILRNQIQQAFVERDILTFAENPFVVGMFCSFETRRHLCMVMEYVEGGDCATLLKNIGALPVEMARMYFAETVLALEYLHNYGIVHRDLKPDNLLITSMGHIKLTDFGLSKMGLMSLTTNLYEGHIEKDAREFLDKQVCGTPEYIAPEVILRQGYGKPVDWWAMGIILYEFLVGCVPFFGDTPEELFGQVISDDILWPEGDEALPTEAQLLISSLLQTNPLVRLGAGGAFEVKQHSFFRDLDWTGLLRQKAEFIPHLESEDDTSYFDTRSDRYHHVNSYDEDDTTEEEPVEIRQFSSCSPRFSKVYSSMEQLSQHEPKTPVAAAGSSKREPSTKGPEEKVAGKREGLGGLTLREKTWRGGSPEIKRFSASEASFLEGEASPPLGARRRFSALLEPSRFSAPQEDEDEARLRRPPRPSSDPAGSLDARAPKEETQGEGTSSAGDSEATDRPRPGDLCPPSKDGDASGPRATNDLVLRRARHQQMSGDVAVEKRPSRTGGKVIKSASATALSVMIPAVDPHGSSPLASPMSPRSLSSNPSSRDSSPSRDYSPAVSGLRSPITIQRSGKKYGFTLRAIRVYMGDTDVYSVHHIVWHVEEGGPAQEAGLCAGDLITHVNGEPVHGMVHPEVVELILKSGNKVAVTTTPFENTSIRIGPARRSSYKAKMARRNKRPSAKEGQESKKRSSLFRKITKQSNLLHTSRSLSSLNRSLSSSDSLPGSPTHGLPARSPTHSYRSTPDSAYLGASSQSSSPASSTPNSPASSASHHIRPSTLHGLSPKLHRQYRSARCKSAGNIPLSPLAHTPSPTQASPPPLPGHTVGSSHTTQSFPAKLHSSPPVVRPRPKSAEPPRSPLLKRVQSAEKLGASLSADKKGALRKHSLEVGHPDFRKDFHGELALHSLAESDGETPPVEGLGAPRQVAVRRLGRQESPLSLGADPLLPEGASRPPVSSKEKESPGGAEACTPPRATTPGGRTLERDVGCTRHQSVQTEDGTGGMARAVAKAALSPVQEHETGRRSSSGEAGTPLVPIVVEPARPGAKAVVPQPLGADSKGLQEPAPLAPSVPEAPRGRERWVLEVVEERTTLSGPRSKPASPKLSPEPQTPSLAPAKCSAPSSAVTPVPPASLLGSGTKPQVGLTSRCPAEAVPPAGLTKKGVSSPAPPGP
T3 sequence (P29475 whole entry, the tested form may be a part): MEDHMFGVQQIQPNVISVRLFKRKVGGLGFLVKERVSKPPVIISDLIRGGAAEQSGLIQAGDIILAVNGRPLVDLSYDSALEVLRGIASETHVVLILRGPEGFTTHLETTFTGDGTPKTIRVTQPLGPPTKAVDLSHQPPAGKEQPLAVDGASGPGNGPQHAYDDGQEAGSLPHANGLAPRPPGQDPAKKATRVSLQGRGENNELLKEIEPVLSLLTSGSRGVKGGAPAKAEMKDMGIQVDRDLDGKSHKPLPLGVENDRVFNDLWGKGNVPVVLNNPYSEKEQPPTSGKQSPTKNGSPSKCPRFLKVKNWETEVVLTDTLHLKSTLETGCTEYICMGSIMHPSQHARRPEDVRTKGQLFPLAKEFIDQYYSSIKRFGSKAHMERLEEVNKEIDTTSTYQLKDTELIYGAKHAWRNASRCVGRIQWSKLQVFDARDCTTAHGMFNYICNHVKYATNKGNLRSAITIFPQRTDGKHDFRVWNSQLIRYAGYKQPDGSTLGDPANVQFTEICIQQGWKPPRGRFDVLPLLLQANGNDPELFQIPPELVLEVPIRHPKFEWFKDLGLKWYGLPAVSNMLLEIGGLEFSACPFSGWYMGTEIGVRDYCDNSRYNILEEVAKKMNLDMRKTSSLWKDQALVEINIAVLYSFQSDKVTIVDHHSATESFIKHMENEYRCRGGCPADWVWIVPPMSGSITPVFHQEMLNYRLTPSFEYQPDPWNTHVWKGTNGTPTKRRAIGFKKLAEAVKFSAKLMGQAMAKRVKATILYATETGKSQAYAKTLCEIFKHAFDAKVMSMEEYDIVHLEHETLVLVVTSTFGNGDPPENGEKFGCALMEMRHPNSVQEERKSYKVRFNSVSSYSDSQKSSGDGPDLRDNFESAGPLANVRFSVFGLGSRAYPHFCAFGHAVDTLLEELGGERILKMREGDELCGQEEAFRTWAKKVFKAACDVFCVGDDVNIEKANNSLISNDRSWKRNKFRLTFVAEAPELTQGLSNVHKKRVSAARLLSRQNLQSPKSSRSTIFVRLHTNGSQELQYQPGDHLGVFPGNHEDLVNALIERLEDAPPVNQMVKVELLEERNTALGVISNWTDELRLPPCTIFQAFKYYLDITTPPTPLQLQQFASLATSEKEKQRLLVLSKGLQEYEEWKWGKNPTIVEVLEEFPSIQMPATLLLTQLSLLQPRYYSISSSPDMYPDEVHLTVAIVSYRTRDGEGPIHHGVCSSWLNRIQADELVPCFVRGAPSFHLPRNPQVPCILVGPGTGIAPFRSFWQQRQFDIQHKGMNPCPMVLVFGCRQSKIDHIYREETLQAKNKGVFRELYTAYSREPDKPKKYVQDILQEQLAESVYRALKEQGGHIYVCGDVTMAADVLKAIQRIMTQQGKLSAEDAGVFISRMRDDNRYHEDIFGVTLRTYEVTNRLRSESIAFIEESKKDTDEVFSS

For `CC(C)C[C@H](NC(=O)[C@H](Cc1c[nH]c2ccccc12)NC(=O)[C@H](Cc1c[nH]cn1)NC(=O)[C@H](CCCNC(=N)N)NC(=O)[C@H](CC(C)C)NC(=O)[C@@H](NC(=O)[C@H](Cc1ccccc1)NC(=O)[C@H](CCC(N)=O)NC(=O)[C@H](CCCNC(=N)N)NC(=O)[C@@H](NC(=O)[C@H](CCC(=O)O)NC(=O)CNC(=O)[C@H](CCCNC(=N)N)NC(=O)[C@H](CC(=O)O)NC(=O)[C@@H](NC(=O)[C@H](CC(C)C)NC(=O)[C@H](CCC(=O)O)NC(=O)[C@H](CCCNC(=N)N)NC(=O)CCCC[C@@H]1SC[C@@H]2NC(=O)N[C@@H]21)C(C)C)C(C)C)[C@@H](C)O)C(=O)N[C@@H](CCCCN)C(=O)N[C@H](C(=O)O)C(C)C` [Dopamine transporter (Na+-dependent)] (Biotin-RELVDRGEVRQFTLRHWLKV-OH; C-terminus assumed), in assay [1] (PDZ ZO-1, PDZ Domain 2), the Classification is 1 (A450 nm 0-1).

On to `CC[C@H](C)[C@H](NC(=O)[C@H](Cc1c[nH]cn1)NC(=O)[C@H](C)NC(=O)[C@H](C)NC(=O)[C@H](CO)NC(=O)[C@@H]1CCCN1C(=O)[C@H](CCCNC(=N)N)NC(=O)[C@H](CC(=O)O)NC(=O)[C@H](CCCCN)NC(=O)[C@@H]1CCCN1C(=O)[C@H](CC(=O)O)NC(=O)[C@H](CCC(=O)O)NC(=O)CCCC[C@@H]1SC[C@@H]2NC(=O)N[C@@H]21)C(=O)N[C@H](C(=O)N[C@@H](CCC(=O)O)C(=O)N[C@@H](C)C(=O)N[C@@H](CC(C)C)C(=O)N[C@@H](CCC(=O)O)C(=O)N[C@H](C(=O)N[C@@H](CC(=O)O)C(=O)N[C@H](C(=O)O)C(C)C)[C@@H](C)O)C(C)C` [PDZ-binding kinase (PBK)] (Biotin-EDPKDRPSAAHIVEALETDV-OH; C-terminus assumed), for which, in assay [2], the Classification is listed as 1 (A450 nm 0-1). Regarding `CC(C)C[C@H](NC(=O)CNC(=O)[C@@H](NC(=O)[C@H](CO)NC(=O)[C@H](CC(N)=O)NC(=O)[C@H](Cc1ccccc1)NC(=O)CNC(=O)[C@H](C)NC(=O)[C@H](C)NC(=O)[C@H](Cc1ccccc1)NC(=O)[C@@H](NC(=O)CCCC[C@@H]1SC[C@@H]2NC(=O)N[C@@H]21)[C@@H](C)O)[C@@H](C)O)C(=O)N1CCC[C@H]1C(=O)N[C@@H](Cc1c[nH]cn1)C(=O)N[C@@H](CO)C(=O)N[C@H](C(=O)N[C@H](C(=O)N[C@@H](CCCNC(=N)N)C(=O)N[C@H](C(=O)O)C(C)C)[C@@H](C)O)[C@@H](C)O` [Neuroligin] (Biotin-TFAAGFNSTGLPHSTTRV-OH; C-terminus assumed), the Classification is 1 (A450 nm 0-1) in assay [3] and 1 (A450 nm 0-1) in assay [1] (PDZ ZO-1, PDZ Domain 1). Turning to `CC(C)C[C@H](NC(=O)[C@H](C)NC(=O)[C@@H](NC(=O)[C@@H](NC(=O)[C@H](Cc1c[nH]cn1)NC(=O)[C@H](CC(C)C)NC(=O)CNC(=O)[C@H](CCC(N)=O)NC(=O)CNC(=O)CNC(=O)[C@H](C)NC(=O)[C@H](C)NC(=O)[C@H](CCCNC(=N)N)NC(=O)[C@H](C)NC(=O)[C@H](CO)NC(=O)[C@H](CC(=O)O)NC(=O)[C@H](CC(=O)O)NC(=O)[C@H](Cc1c[nH]c2ccccc12)NC(=O)[C@H](C)NC(=O)CCCC[C@@H]1SC[C@@H]2NC(=O)N[C@@H]21)C(C)C)[C@@H](C)O)C(=O)O` [LPAP] (Biotin-AWDDSARAAGGQGLHVTAL-OH; C-terminus assumed), the Classification in assay [3] is listed as 1 (A450 nm 0-1). As to `CC[C@H](C)[C@H](NC(=O)[C@H](C)NC(=O)[C@H](CC(C)C)NC(=O)[C@H](Cc1c[nH]c2ccccc12)NC(=O)[C@H](Cc1c[nH]cn1)NC(=O)[C@H](CCC(N)=O)NC(=O)[C@H](CC(C)C)NC(=O)[C@H](CCC(N)=O)NC(=O)[C@H](Cc1ccccc1)NC(=O)[C@H](CCC(N)=O)NC(=O)[C@H](CCCNC(=N)N)NC(=O)[C@@H](NC(=O)[C@H](CC(=O)O)NC(=O)[C@H](CCCNC(=N)N)NC(=O)[C@H](CCC(N)=O)NC(=O)[C@H](C)NC(=O)[C@@H](NC(=O)[C@H](CC(C)C)NC(=O)[C@H](Cc1c[nH]cn1)NC(=O)[C@H](Cc1c[nH]cn1)NC(=O)CCCC[C@@H]1SC[C@@H]2NC(=O)N[C@@H]21)C(C)C)[C@@H](C)CC)C(=O)O` [noradrenaline transporter] (Biotin-HHLVAQRDIRQFQLQHWLAI-OH; C-terminus assumed), the Classification in assay [1] (PDZ ZO-1, PDZ Domain 2) was 2 (A450 nm 1-2).

Take “A2AC_HUMAN (Modified) (Biotin-DFRPSFKHILFRRARRGFRQ; not fully specified)”: in assay [4], the Classification was 3 (A450 nm 2-3). Turning to “LASKSAEEGKQIPDSLSTDL (Biotin-LASKSAEEGKQIPDSLSTDL) [Dock2]”, in assay [5], the Classification is on record as 1 (A450 nm 0-1). As for “VHDAESSDEDGYDWGPATDL (Biotin-VHDAESSDEDGYDWGPATDL) [zona occludens 3 (ZO-3)]”, the Classification in assay [5] and in assay [4] was 2 (A450 nm 1-2) each time. In the case of “KTMPAATYRLLTGQEQPVYL (Biotin-KTMPAATYRLLTGQEQPVYL) [MINT-3]”, the Classification in assay [4] is recorded as 2 (A450 nm 1-2). Turning to “GPVPGEPAKPKTSAHHATFV (Biotin-GPVPGEPAKPKTSAHHATFV)”, the Classification in assay [1] (PDZ ZO-1, PDZ Domain 1) is 1 (A450 nm 0-1).

For the molecule “PYSELNYETSHYPASPDSWV (Biotin-PYSELNYETSHYPASPDSWV) [catenin - delta 2]”, the results for the Classification in assay [5] and in assay [2] were 5 (A450 nm of 4 more than 2× repeated) and 1 (A450 nm 0-1), respectively. “PPATPSPRLALPAHHNATRL (Biotin-PPATPSPRLALPAHHNATRL) [Na+/Pi cotransporter 2]”: in assay [4], the Classification was 2 (A450 nm 1-2). As for “ALVLIAFCIIRRRPSAYQAL (Biotin-ALVLIAFCIIRRRPSAYQAL) [CD68]”, the Classification in assay [4] was 1 (A450 nm 0-1).

On to `CC[C@H](C)[C@H](NC(=O)[C@H](CCC(N)=O)NC(=O)[C@@H](NC(=O)[C@H](Cc1c[nH]cn1)NC(=O)[C@H](CCC(N)=O)NC(=O)[C@H](CC(=O)O)NC(=O)[C@H](CCC(=O)O)NC(=O)[C@H](CC(=O)O)NC(=O)[C@H](Cc1ccccc1)NC(=O)[C@@H]1CCCN1C(=O)[C@H](CCC(=O)O)NC(=O)[C@H](CC(N)=O)NC(=O)[C@H](CCC(=O)O)NC(=O)[C@@H]1CCCN1C(=O)[C@H](CC(=O)O)NC(=O)[C@H](CO)NC(=O)[C@H](CC(=O)O)NC(=O)CCCC[C@@H]1SC[C@@H]2NC(=O)N[C@@H]21)[C@@H](C)O)C(=O)N[C@H](C(=O)N[C@@H](CCCCN)C(=O)N[C@H](C(=O)O)C(C)C)[C@@H](C)O` [PTEN], for which, in assay [2], the Classification was 1 (A450 nm 0-1). Take “A2AA_HUMAN (modified) (Biotin-HDFRRAFKKILARGDRKRIV; not fully specified)”: the Classification in assay [1] (PDZ ZO-1, PDZ Domain 2) is given as 4 (A450 nm 3-4); in assay [5], 1 (A450 nm 0-1); in assay [2], 2 (A450 nm 1-2). In the case of `CC[C@H](C)[C@H](NC(=O)CNC(=O)[C@H](CO)NC(=O)[C@H](Cc1ccccc1)NC(=O)[C@@H](NC(=O)[C@H](CS)NC(=O)CNC(=O)CNC(=O)[C@H](C)NC(=O)[C@@H]1CCCN1C(=O)[C@@H](NC(=O)[C@@H]1CCCN1C(=O)CCCC[C@@H]1SC[C@@H]2NC(=O)N[C@@H]21)[C@@H](C)CC)[C@@H](C)O)C(=O)N[C@@H](Cc1ccccc1)C(=O)N1CCC[C@H]1C(=O)N[C@H](C(=O)N[C@@H](CC(C)C)C(=O)N[C@H](C(=O)N[C@@H](CO)C(=O)N1CCC[C@H]1C(=O)N[C@@H](CC(C)C)C(=O)O)[C@@H](C)O)[C@@H](C)O` [KIA 1481] (Biotin-PIPAGGCTFSGIFPTLTSPL-OH; C-terminus assumed), the Classification in assay [4] is on record as 2 (A450 nm 1-2). The same measure, in the same setting: then `CC(C)C[C@H](NC(=O)[C@H](CCCNC(=N)N)NC(=O)CNC(=O)CNC(=O)[C@H](CCCNC(=N)N)NC(=O)[C@H](C)NC(=O)[C@@H]1CCCN1C(=O)[C@H](CCCNC(=N)N)NC(=O)CNC(=O)CNC(=O)[C@@H](NC(=O)[C@H](C)NC(=O)CCCC[C@@H]1SC[C@@H]2NC(=O)N[C@@H]21)C(C)C)C(=O)N[C@@H](CCC(N)=O)C(=O)NCC(=O)N[C@@H](CCCNC(=N)N)C(=O)N[C@@H](CCCNC(=N)N)C(=O)N[C@@H](CCC(N)=O)C(=O)N[C@H](C(=O)N[C@@H](CCC(N)=O)C(=O)N[C@H](C(=O)O)C(C)C)[C@@H](C)O` [HPV E6 58 (modified)] (Biotin-AVGGRPARGGRLQGRRQTQV-OH; C-terminus assumed), with 2 (A450 nm 1-2).
